Reference: the supplement of paper PMC7877785
± gives the uncertainty stated by the source.

Test: self-splicing fitness, log relative to wild type (ln ratio); higher = more splicing; Tetrahymena group I intron in knt gene, E. coli kanamycin selection, DiMSum; sequences stand for … in CUCUCU…GGAGGGAAAAGUUAUCAGGCAUGCACCUGGUAGCUAGUCUUUAAACCAAUAGAUUGCAUCGGUUUAAAAGGCAAGACCGUCAAAUUGCGGGAAAGGGGUCAACAGCCGUUCAGUACCAAGUCUCAGGGGAAACUUUGAGAUGGCCUUGCAAAGGGUAUGGUAAUAAGCUGACGGACAUGGUCCUAACCACGCAGCCAAGUCCUAAGUCAACAGAUCUUCUGUUGAUAUGGAUGCAGUUCACAGACUAAAUGUCGGUCGGGGAAGAUGUAUUCUUCUCAUAAGAUAUAGUCGGACCUCUCCUUAAUGGGAGCUAGCGGAUGAAGUGAUGCAACACUGGAGCCGCUGGGAACUAAUUUGUAUGCGAAAGUAUAUUGAUUAGUUUUGGAGUACUCGUGGUCG
Procedure, shortened: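 Colonies from six replicate transformations of E. coli BL21(DE3) were pooled and amplicon-sequenced on an Illumina HiSeq 2500. The library placed an intron with all eight P1ex-region nucleotides randomised inside the knt kanamycin-resistance gene on pET-22b(+), and cells grew overnight at 37°C or 30°C on LB agar with or without 25 μg/mL kanamycin (plus 100 μg/mL carbenicillin, 50 μM IPTG, 0.2% rhamnose). Fitness is the DiMSum error-weighted combination of wild-type-normalised replicate fold changes, kanamycin versus none.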

Row | Sequence | self-splicing fitness (ln) (30 °C) | self-splicing fitness (ln) (37 °C)
1 | AUACAGCAAUAUUACGGCAC | -1.18 ± 0.087 | -0.127 ± 0.12
2 | AUACAGCAAUAUUACGGUGG | -2.95 ± 0.11 | -2.92 ± 0.15
3 | AUACAGCAAUAUUACGUACC | -0.828 ± 0.11 | -0.283 ± 0.15
4 | AUACAGCAAUAUUACGUAGC | -3.19 ± 0.21 | -2.45 ± 0.23
5 | AUACAGCAAUAUUACGUCAC | -3.13 ± 0.16 | -2.1 ± 0.17
6 | AUACAGCAAUAUUACGUCUA | -0.606 ± 0.078 | -0.238 ± 0.079
7 | AUACAGCAAUAUUACGUCUC | -2.98 ± 0.15 | -2.27 ± 0.14
8 | AUACAGCAAUAUUACGUCUU | -0.218 ± 0.059 | 0.336 ± 0.074
9 | AUAGAGCAAUAUUACGACAG | -2.6 ± 0.18 | -0.985 ± 0.2
10 | AUAGAGCAAUAUUACGACAU | 0.275 ± 0.013 | 0.437 ± 0.033
11 | AUAGAGCAAUAUUACGACCU | -1.41 ± 0.23 | -0.988 ± 0.21
12 | AUAGAGCAAUAUUACGACUA | -0.25 ± 0.073 | 0.211 ± 0.088
13 | AUAGAGCAAUAUUACGAGCU | -1.71 ± 0.18 | -1.15 ± 0.16
14 | AUAGAGCAAUAUUACGAGGA | -2.21 ± 0.23 | -2.16 ± 0.27
15 | AUAGAGCAAUAUUACGAUGC | – | -1.36 ± 0.32
16 | AUAGAGCAAUAUUACGCACC | -1.1 ± 0.35 | -1.41 ± 0.44
17 | AUAGAGCAAUAUUACGCAGG | -3.06 ± 0.2 | -1.86 ± 0.23
18 | AUAGAGCAAUAUUACGCGAU | -2.28 ± 0.35 | -2 ± 0.26
19 | AUAGAGCAAUAUUACGCGGU | -4.29 ± 0.35 | -1.64 ± 0.24
20 | AUAGAGCAAUAUUACGCUGG | -1.97 ± 0.14 | -1.62 ± 0.2
21 | AUAGAGCAAUAUUACGCUGU | -0.963 ± 0.11 | 0.0295 ± 0.14
22 | AUAGAGCAAUAUUACGGAAG | -2.48 ± 0.18 | -1.45 ± 0.21
23 | AUAGAGCAAUAUUACGGAUC | -2.96 ± 0.3 | -2.14 ± 0.31
24 | AUAGAGCAAUAUUACGGCAG | -2.15 ± 0.19 | -1.37 ± 0.16

Row | Sequence | self-splicing fitness (ln) (30 °C) | self-splicing fitness (ln) (37 °C)
25 | AUAGAGCAAUAUUACGGCGG | -1.71 ± 0.1 | -1.32 ± 0.13
26 | AUAGAGCAAUAUUACGGGAG | -4.25 ± 0.24 | -2.26 ± 0.22
27 | AUAGAGCAAUAUUACGGGUA | -2.89 ± 0.16 | -2.53 ± 0.24
28 | AUAGAGCAAUAUUACGGGUC | -3.75 ± 0.36 | -2.58 ± 0.24
29 | AUAGAGCAAUAUUACGGGUU | -2.43 ± 0.16 | -1.1 ± 0.17
30 | AUAGAGCAAUAUUACGGUGA | -1.49 ± 0.15 | -1.41 ± 0.19
31 | AUAGAGCAAUAUUACGUAGC | -3.16 ± 0.29 | -2.27 ± 0.3
32 | AUAGAGCAAUAUUACGUGAA | – | -1.07 ± 0.25
33 | AUAGAGCAAUAUUACGUGAC | -1.62 ± 0.23 | -1.6 ± 0.28
34 | AUAGAGCAAUAUUACGUGAG | -3.77 ± 0.21 | -2.42 ± 0.14
35 | AUAGAGCAAUAUUACGUGCA | -0.67 ± 0.069 | -0.162 ± 0.1
36 | AUAGAGCAAUAUUACGUGCC | -3.44 ± 0.41 | -1.69 ± 0.4
37 | AUAUAGCAAUAUUACGAAGG | -2.83 ± 0.3 | -2.3 ± 0.4
38 | AUAUAGCAAUAUUACGACAG | -2.12 ± 0.19 | -1.51 ± 0.27
39 | AUAUAGCAAUAUUACGAUAA | -1.38 ± 0.31 | -0.229 ± 0.39
40 | AUAUAGCAAUAUUACGCAUA | -2.02 ± 0.26 | -0.946 ± 0.26
41 | AUAUAGCAAUAUUACGCCAA | -1.24 ± 0.45 | -0.89 ± 0.42
42 | AUAUAGCAAUAUUACGCGUG | -1.1 ± 0.12 | -0.528 ± 0.14
43 | AUAUAGCAAUAUUACGGACG | -2.09 ± 0.16 | -1.07 ± 0.19
44 | AUAUAGCAAUAUUACGGGGG | -2.92 ± 0.36 | -0.973 ± 0.28
45 | AUAUAGCAAUAUUACGGUUC | -3.14 ± 0.17 | -2.5 ± 0.24
46 | AUAUAGCAAUAUUACGUACG | -2.49 ± 0.2 | -0.317 ± 0.15
47 | AUAUAGCAAUAUUACGUCGA | -2.07 ± 0.17 | -1.51 ± 0.2
48 | AUAUAGCAAUAUUACGUGAG | -1.81 ± 0.063 | -0.565 ± 0.096

Row | Sequence | self-splicing fitness (ln) (30 °C) | self-splicing fitness (ln) (37 °C)
49 | AUAUAGCAAUAUUACGUUCG | -1.57 ± 0.2 | -0.377 ± 0.27
50 | AUAUAGCAAUAUUACGUUUU | -2.98 ± 0.22 | -1.82 ± 0.22
51 | AUCAAGCAAUAUUACGAAAG | -3.67 ± 0.21 | -2.74 ± 0.25
52 | AUCAAGCAAUAUUACGAACU | -0.00363 ± 0.11 | 0.0259 ± 0.11
53 | AUCAAGCAAUAUUACGACGA | -1.26 ± 0.095 | -0.128 ± 0.11
54 | AUCAAGCAAUAUUACGAGCU | -1.24 ± 0.084 | -0.596 ± 0.1
55 | AUCAAGCAAUAUUACGAUGG | -3.43 ± 0.26 | -2.67 ± 0.2
56 | AUCAAGCAAUAUUACGCAUU | -2.32 ± 0.12 | -1.69 ± 0.14
57 | AUCAAGCAAUAUUACGCUGC | -2.4 ± 0.41 | -0.934 ± 0.33
58 | AUCAAGCAAUAUUACGGAAU | -1.94 ± 0.071 | -1.03 ± 0.083
59 | AUCAAGCAAUAUUACGGAGG | -2.43 ± 0.096 | -1.36 ± 0.13
60 | AUCAAGCAAUAUUACGGAUG | -2.01 ± 0.079 | -0.664 ± 0.082
61 | AUCAAGCAAUAUUACGGCGA | -0.555 ± 0.077 | 0.246 ± 0.1
62 | AUCAAGCAAUAUUACGGCGG | -1.04 ± 0.066 | -0.788 ± 0.091
63 | AUCAAGCAAUAUUACGGGUG | -1.4 ± 0.088 | -0.416 ± 0.087
64 | AUCAAGCAAUAUUACGGUCU | -1.54 ± 0.11 | -0.196 ± 0.095
65 | AUCAAGCAAUAUUACGUAUA | -2.76 ± 0.23 | -2.31 ± 0.19
66 | AUCCAGCAAUAUUACGACCG | -1.43 ± 0.084 | -0.707 ± 0.12
67 | AUCCAGCAAUAUUACGAGAA | -2.6 ± 0.24 | -1.22 ± 0.22
68 | AUCCAGCAAUAUUACGAUGC | -2.01 ± 0.15 | -0.963 ± 0.17
69 | AUCCAGCAAUAUUACGAUUG | -4.83 ± 0.34 | -3.03 ± 0.24
70 | AUCCAGCAAUAUUACGCAUG | -3.68 ± 0.27 | -0.669 ± 0.13
71 | AUCCAGCAAUAUUACGCCCC | -0.216 ± 0.11 | 0.691 ± 0.19
72 | AUCCAGCAAUAUUACGCGCA | -0.994 ± 0.067 | -0.169 ± 0.081

Row | Sequence | self-splicing fitness (ln) (30 °C) | self-splicing fitness (ln) (37 °C)
73 | AUCCAGCAAUAUUACGCUGA | -1.36 ± 0.097 | -1.22 ± 0.13
74 | AUCCAGCAAUAUUACGGAAA | -1.07 ± 0.092 | -1.02 ± 0.084
75 | AUCCAGCAAUAUUACGGAAU | -2.94 ± 0.13 | -1.91 ± 0.17
76 | AUCCAGCAAUAUUACGGAGA | -2.43 ± 0.14 | -0.986 ± 0.12
77 | AUCCAGCAAUAUUACGGAGU | -3.02 ± 0.098 | -1.99 ± 0.11
78 | AUCCAGCAAUAUUACGGCCG | -1.22 ± 0.097 | -0.00834 ± 0.12
79 | AUCCAGCAAUAUUACGGCUA | -0.15 ± 0.092 | -0.19 ± 0.08
80 | AUCCAGCAAUAUUACGGGCU | -3.07 ± 0.16 | -2.64 ± 0.17
81 | AUCCAGCAAUAUUACGGUUU | -1.04 ± 0.05 | -0.324 ± 0.068
82 | AUCCAGCAAUAUUACGUAGC | -2.3 ± 0.08 | -1.78 ± 0.11
83 | AUCCAGCAAUAUUACGUGCU | -2.83 ± 0.17 | -2.88 ± 0.31
84 | AUCCAGCAAUAUUACGUUAG | -3.22 ± 0.17 | -3.56 ± 0.35
85 | AUCCAGCAAUAUUACGUUCC | -1.19 ± 0.13 | -0.575 ± 0.25
86 | AUCCAGCAAUAUUACGUUGA | -1.6 ± 0.077 | -0.866 ± 0.087
87 | AUCGAGCAAUAUUACGAAAG | -2.41 ± 0.13 | -0.783 ± 0.14
88 | AUCGAGCAAUAUUACGAACG | -2.49 ± 0.22 | -1.65 ± 0.33
89 | AUCGAGCAAUAUUACGACAA | -2.78 ± 0.18 | -2.2 ± 0.18
90 | AUCGAGCAAUAUUACGACAU | -0.347 ± 0.013 | 0.0643 ± 0.033
91 | AUCGAGCAAUAUUACGAGGC | – | -1.13 ± 0.28
92 | AUCGAGCAAUAUUACGCAGA | -3.09 ± 0.18 | -2.46 ± 0.16
93 | AUCGAGCAAUAUUACGCCAU | -2.34 ± 0.31 | -2.79 ± 0.3
94 | AUCGAGCAAUAUUACGCCUG | -3.45 ± 0.36 | -1.78 ± 0.22
95 | AUCGAGCAAUAUUACGCUAC | – | -1.06 ± 0.29
96 | AUCGAGCAAUAUUACGCUAG | -4.43 ± 0.46 | -2.64 ± 0.33
